This note sets out measurements from PMC6265302, “Widespread bacterial lysine degradation proceeding via glutarate and L-2-hydroxyglutarate” (Nature Communications, 2018).

Substrate in data set [1]: NCCCCN
Put plainly: purified protein. It is filed as biochemical, Escherichia coli. The conditions noted are these: coupled with PatD (rate-limiting dehydrogenase), 5 mM α-ketoglutarate, 500 µM NAD+, pH 8.0, room temperature.

Substrate in data set [2]: NCCCCCN
The data set is described as follows: purified protein. The conditions noted are these: coupled with PatD (rate-limiting dehydrogenase), 5 mM α-ketoglutarate, 500 µM NAD+, pH 8.0, room temperature. It is filed as biochemical, Escherichia coli.

Substrate in data set [3]: NCCCCC(=O)O
The data set is described as follows: purified protein. It is filed as biochemical, Escherichia coli. The conditions noted are these: coupled with GabD (rate-limiting dehydrogenase), 5 mM α-ketoglutarate, 500 µM NADP+, pH 8.0, room temperature.

Substrate in data set [4]: NCCCC(=O)O
The data set is described as follows: purified protein. The conditions noted are these: coupled with GabD (rate-limiting dehydrogenase), 5 mM α-ketoglutarate, 500 µM NADP+, pH 8.0, room temperature.

Substrate in data set [5]: O=C(O)CCCC(=O)O
The data set is described as follows: O2 consumption, Clark electrode. It is filed as biochemical, Escherichia coli. The conditions noted are these: 1 mM α-ketoglutarate, 4 µM Fe(NH4)2SO4, 400 µM ascorbate, MOPS pH 7.2, 30 °C.

Substrate in data set [6]: O=C(O)CCC(=O)C(=O)O
Put plainly: O2 consumption, Clark electrode. It is filed as biochemical, Escherichia coli. The conditions noted are these: 5 mM glutarate, 4 µM Fe(NH4)2SO4, 400 µM ascorbate, MOPS pH 7.2, 30 °C.

B1: PatA (Escherichia coli K-12) (protein)
chain: MNRLPSSASALACSAHALNLIEKRTLDHEEMKALNREVIEYFKEHVNPGFLEYRKSVTAGGDYGAVEWQAGSLNTLVDTQGQEFIDCLGGFGIFNVGHRNPVVVSAVQNQLAKQPLHSQELLDPLRAMLAKTLAALTPGKLKYSFFCNSGTESVEAALKLAKAYQSPRGKFTFIATSGAFHGKSLGALSATAKSTFRKPFMPLLPGFRHVPFGNIEAMRTALNECKKTGDDVAAVILEPIQGEGGVILPPPGYLTAVRKLCDEFGALMILDEVQTGMGRTGKMFACEHENVQPDILCLAKALGGGVMPIGATIATEEVFSVLFDNPFLHTTTFGGNPLACAAALATINVLLEQNLPAQAEQKGDMLLDGFRQLAREYPDLVQEARGKGMLMAIEFVDNEIGYNFASEMFRQRVLVAGTLNNAKTIRIEPPLTLTIEQCELVIKAARKALAAMRVSVEEA
notes: purified enzyme, cloning not described in main text; assayed coupled with PatD
With B1, the Km in “purified protein [1]” was found to be 1430 ± 70 µM; in “purified protein [2]”, 370 ± 50 µM.

B2: GabT (Escherichia coli K-12) (protein)
chain: MNSNKELMQRRSQAIPRGVGQIHPIFADRAENCRVWDVEGREYLDFAGGIAVLNTGHLHPKVVAAVEAQLKKLSHTCFQVLAYEPYLELCEIMNQKVPGDFAKKTLLVTTGSEAVENAVKIARAATKRSGTIAFSGAYHGRTHYTLALTGKVNPYSAGMGLMPGHVYRALYPCPLHGISEDDAIASIHRIFKNDAAPEDIAAIVIEPVQGEGGFYASSPAFMQRLRALCDEHGIMLIADEVQSGAGRTGTLFAMEQMGVAPDLTTFAKSIAGGFPLAGVTGRAEVMDAVAPGGLGGTYAGNPIACVAALEVLKVFEQENLLQKANDLGQKLKDGLLAIAEKHPEIGDVRGLGAMIAIELFEDGDHNKPDAKLTAEIVARARDKGLILLSCGPYYNVLRILVPLTIEDAQIRQGLEIISQCFDEAKQ
notes: full ORF, N-terminal 6xHis tag (pET28a), expressed in E. coli BL21(DE3); assayed coupled with GabD
B2: the figures for the Km in “purified protein [3]” and in “purified protein [4]” were 439 ± 29 µM and 197 ± 27 µM, respectively.

B3: CsiD (Escherichia coli K-12) (protein)
chain: MNALTAVQNNAVDSGQDYSGFTLTPSAQSPRLLELTFTEQTTKQFLEQVAEWPVQALEYKSFLRFRVAKILDDLCANQLQPLLLKTLLNRAEGALLINAVGVDDVKQADEMVKLATAVAHLIGRSNFDAMSGQYYARFVVKNVDNSDSYLRQPHRVMELHNDGTYVEEITDYVLMMKIDEQNMQGGNSLLLHLDDWEHLDNYFRHPLARRPMRFAAPPSKNVSKDVFHPVFDVDQQGRPVMRYIDQFVQPKDFEEGVWLSELSDAIETSKGILSVPVPVGKFLLINNLFWLHGRDRFTPHPDLRRELMRQRGYFAYASNHYQTHQ
notes: full ORF, N-terminal 6xHis tag (pET28a), expressed in E. coli BL21(DE3); Fe(II); homotetramer
Regarding B3, the Michaelis constant (Km) in data set [5] stood at 650 ± 20 µM; in data set [6] it was 100 ± 7 µM.
